Consider four molecules from patent publication US20240026407A1, “MODIFICATION OF SAPONINS” (GLAXOSMITHKLINE BIOLOGICALS SA, priority 2020, published 2024).

Type in all cases: biochemical, Quillaja saponaria
Test [1] is described as follows: Experiment 4-1: screening of glucosidases for deglycosylation with purified QS-18 (0.04 mg/ml) at pH 7.5 and room temperature. Particulars: pH 7.5, room temperature, 20 h, clarified E. coli lysate, QS-18 2150 to QS-21 1988 by LCMS/MS. The gist of the method:
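Deglycosylation measured by LC-MS/MS as % conversion after 20 h room-temperature incubation of QS-18 phenyl fraction (0.04 mg/ml final) with polymyxin B/lysozyme lysates, pH 7.5 phosphate, of E. coli BL21(DE3) expressing each enzyme; MeCN quench. Positives exceeded negative control by >3 S.D.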

Test [2] can be described thus: Experiment 4-2: screening of glucosidases for deglycosylation with purified QS-18 (1 mg/ml) at pH 6 and 30 deg C. Particulars: pH 6, 30 degC, 18 hrs, clarified lysate, LCMS/MS. In a few lines:
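Enzyme activity derived from LC-MS/MS analysis after MeCN quench. Substrate QS-18 (1 mg/ml final) was exposed overnight (18 h, 30 °C, pH 6 phosphate buffer) to clarified lysates containing candidate glucosidases.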

Test [3] in a line: Experiment 4-4: screening of glucosidases for deglycosylation of QS-18 in crude bark extract (1 in 20 dilution) to QS-21. The note with it: CBE 1 in 20 dilution, pH 6, 25 degC, 18 hours; % conversion of Middle Peak by UV HPLC. In a few lines:
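Clarified glucosidase lysates were incubated with pH 6 crude bark extract (1 in 20) in potassium phosphate buffer pH 6 for 18 h at 25 °C with shaking, then quenched with MeCN. UV HPLC with MS/MS-supported peak identity; activity is % conversion of the extract's Middle Peak (QS-18 family) toward the QS-21 peak.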

B1: 63 (protein, listed as Gynuella sunshinyii)
chain: MFDPVTILKQLNREEKVQLLCGLDAWHLHGVERLGIPSITLTDGPHGVRLAQSHDVFDSVDATVFPVEAAMAATWNVGLIKELAGAIAKECQQLGVSVLLGPGVNGKRSPLGGRNFEYFSEDPYLTGAMASNFVEGVQSQGVGACLKHFAGNEQETRRFLINSVIDERTLQEMYIAPFAKAIRESRPWTVMGAYNSVNGQFACQNSHLLQDILRDQLGFDGLVMSDWGAVGDKVACHQHGLDLEMPGPADRDQQLLDALDNGDMSEVVLDSRVLKVLELIHKSVTHKRDVQVDFERHHELAIEVACDSAVLLKNSGNLPLDKSRSIGLIGQFAKHPRFQGGGSSHMNPRHLSNAFEAFCSRAEVSWAMGYEELEMTDEMLREAVALAKRVDQVVLLTGTTDALESEGFDRSNMRLPEAHVELIKAVYQTNSNVVVVMYAGSALETRQIEDYAPSLMHAWLPGEGGGEALARLLFGEVSPSGKLSETFPVRLEHNPTYESFPGNKADTIYNEGIFTGYRYYDTKKLPVQYPFGYGLSYTSFAYSDLSYDASCREVAVNVTNIGDMAGAEVVQVYIHDEHSTLRRPDQELKGFAKVMLQPGETQRVSIALDEQAFAYFVTHLQRFAEESGRFEIRVGSSSRDIHESLWIELESDIECRQIPTLNDTVEDWLRDDRTRPILEDAFAQVGFTKDHSFYALTLGFPMTLLKKFMPMMGLTEQQCESLKDKLGLE
For the molecule B1, in test [1], the “Expt 4-1 % conv” value turned out to be 95.6%. In addition, in test [2], the “Expt 4-2 % conv” value is reported as 54.2%. Besides, the “Expt 4-4 % conv” value in test [3] is below 3%.

B2: 365 (protein)
chain: MEDDGANSKTELSDQRKVALLSGADDWHTEAVPELGLEAVMMADGPHGLRKVMSASLADLQASEPATCFPTGSALAATWDRVLAGDVGRAIGREAVAEGVGVVLGPAVNLKRHPAAGRNFEYFSEDPFLAGELAVAWIDGVQGEGVGASLKHFAVNNQEANRMVVDAVVDPATLRELYLGAFEAAVRRSRPWTVMSAYNLLNGVYCSEDPWLLSELLRDQWGFDGLVVTDWGANDDRVAGIRAGQDLEMPGGHGTHDAAVLAALADGSLHRADLDGCVRRVLALLERADGARSGRPGSAMASPRPGADPDALHREHHQLARRAAAAGTVLLTNDGTLPLAPSGHVALIGEFAAHPRFQGGGSSQVKATRSDNLHAELRTHVDAAGGRVQYAPGYVLRARDDRPGEPARRVDEAVSIARGAEVAVVVVGLPDAVESEGFDRDHLHLPESHNILVRAVCAANPNTVVIVVAGSPVTMDWVDQPAAIIHGYLGGQAAGGALADVLVGAAEPGGRLAETFPVRSAGVASDRWFPGEPHQVTYREGPYIGYRWFDASGATPLFPFGHGLSYAEITLGVPTLSAQHVDAGVLLGGTDVVAPAEVPPPGAGPVAFTVTVPLTNAGDRAGSEVVQVYLESPDTGRPAAHRHLVGFAKVNLEPNSTREATVDVHARALCHWHPADRGWAVSAGTWGVAVGCSSGNLPHGLMVEVASSWSAPEPDPALDPYRNPRPDDWDPGVAAFEALLGRSVPEPTPVRPFTRNTTLGELGETRLGRPLLALVRAIVAHTTGGAHDEGGLGAMIDRSLGELPLRNLAVMSQGRVPMSAINRLIALANRMPGHPAGHPPGRPPGRSVGFTRPGRRR
modifications: Candidatus microthrix
As for B2, the “Expt 4-1 % conv” value in test [1] came to 1.3%. The “Expt 4-2 % conv” value in test [2] amounted to 0.4%. In test [3], the “Expt 4-4 % conv” value is below 3%.

B3: 176 (protein, listed as Streptomonospora sp.)
chain: MTTANRAAHAADAAREPQVEAALARLDLDGRIRLLSGATMWAIAPNPDIGLERLVMSDGPVGVRGEHWTPDDPALQLPSPTALAATWDTELIRTVGRTLAQEARRKGVHVLLAPTVNIHRSPLGGRHFECYSEDPLLTGRIGTAYVDGVQDGGVGTTVKHFVANDSETDRFTVDVRVDERTLREIYLAPFEAIVDGARPWGVMAAYNGVNGTTMTEHARLNAVLRDEWGFDGFIVSDWTAARDTVGCALAGMDVAMPGPSTVYGENLRAAVREGRVPEGAVEAMARRVLRLAARVGALEGAEPAVAPAALPPAIDGRAVAREAAARSFTLLRNEGRALPIDPARVGSVALIGLAADEARTSGGGSATVFTEHTVSPREGLRAALPESVRLDYAVGADPRASLPPLAGPLTAAFRDADGTVLATERLADGTARWIGELPDGVTAEGLSTIEVSGTLTPAYTGTHVFGAKGVGHFRLAVGGRVGFDGVNEVDGDDPGAGFLNPPESTAEFALTAGEAVEVSVVATVPGVSADFAFIGFSLNHSEPRAGDDELIEEAVRTAAGADVAIVIAATTEEVESEGFDRDSLELPGRQDELVSRVAAANPRTVAVVNTGSPVVMPWRGDVAAVLLTWFGGQELGAALADVLLGAEEPGGRLPTTWPAEQADVPVIGVRPDGGVLEYSEGVFVGYRAWQRLGAEPAYWFGHGLGYTTWDYTGADAAVRLDGGVSVTARLANTGARRGREVVQVYVSPQEEGGAPERPRRWLAGFAPVVAEPGASAEAVVEVPARAFQVWDSAAHDWRTVPGGYDVLVGRSVADTPVSARVEIAG
Consider B3, for which the “Expt 4-1 % conv” value in test [1] stood at 1.2%. The “Expt 4-2 % conv” value in test [2] stood at 0.4%. The “Expt 4-4 % conv” value in test [3] was below 3%.

B4: 229 (protein, listed as Nectria haematococca)
chain: MASVDIPAILATLSLEEKVSLLAGKNLWETVPVPSKGVPNVKVSDGPNGARGASFAGGTTAACFPAACLMASTFDVKLAKRIGSALAEETQSKGARCLLAPTMCLHRHPLGGRNFESFSEDPLLTGKMAARVVEGLQDKGVSATIKHFAVNEQETDRLTVDETVNERALRELYLRPFEIAVKEANPWAVMTAYNKINGHHADCHPFTLKKVLRGDWGWNGLVMSDWGGTNSTPDSLEAGLDLEMPGPTRWRKPEDVIAAIKEGKTSEKTIDERATNVLRFLERLGCFKDPTIPDEKAINKPEHQALIREAGSKGIVLLKNQDKILPLSKEKVKGKKIALLGHAKIGLAHGGGSASVSAHYKVTPWDALHEALGDSVEFSYAKGAHTFRTLPAIAENVVGLDGKPGFTFKVYEPGSSEPIETRHGHADSEVSALGSFGFLNKDVSLEGAFTPQETAQYYFTCSGLGPSKLIIDDKVVYEQTENCSDAMGFLFGGVAAPEFKVALEAGRQYKLVLRTSPPSANDREDLGILEGLCGLRVGSMSESEHDRDLVSEAVEVAKNADYAVIFTGHEPFWETEGQDQVSFNLPKDGSQDRLISAVAAANPNTVVVNSTGVAIAMPWLNEIQGFLQTWYPGQECGNSIADVLTGAQTPEGHLTCTFPKKIEDCPAYGNFPGEYDNGKLKVTYKEGVFIGYRHFDRLPADKVNFPFGFGLSYTTFDFSSLEVKESGEGYTASLKVSNTGDVVGAIAVQVYVGAAQTAEENPVKQLVAFEKVTVKPGETASVEVPVRTRDFGFFDESKQKWVVKGGDYKFLIGKSARDIVLESTVAVKEQSFDL
As to B4, the “Expt 4-1 % conv” value in test [1] turned out to be 91.1%. Further, in test [2], the “Expt 4-2 % conv” value was determined as 14.2%. Moreover, the “Expt 4-4 % conv” value in test [3] is below 3%.
